Test results reported in patent publication US12241090B2, “Methods and systems for converting precursor cells into gastric tissues through directed differentiation” (CHILDREN'S HOSPITAL MEDICAL CENTER, priority 2014, dated 2025).

How the values were obtained:
[1] = tested on: hPSC-derived definitive endoderm (DE) cultures; assay: Endoderm patterning of hPSC-derived DE cultures with growth factors/antagonists, qPCR and immunofluorescence; type: cell-based, human
Procedure: Following DE induction, cells were treated for three days with growth factors/antagonists in RPMI 1640 with 2.0% dFBS. […] RA (2 μM; Sigma Aldrich) is added on the final day. Three-dimensional growth and antral specification. Posterior foregut spheroids were embedded in Matrigel (BD Biosciences) as previously described^10, 12 and subsequently grown in Advanced DMEM/F12 (Invitrogen) supplemented with N2 (Invitrogen), B27 (Invitrogen), L-glutamine, 10 μM HEPES, penicillin/streptomycin, and EGF (100 ng ml^−1; R&D Systems). For antral specification, RA and noggin were added for the first three days of three-dimensional growth. For endocrine cell specification, the EGF concentration is lowered to 10 ng ml^−1 at day 30.
The media was changed every day.
All tissues were fixed in 4% paraformaldehyde for either one hour at room temperature for frozen processing or overnight at 4° C. for paraffin processing. For frozen sections, tissue was protected in 30% sucrose overnight at 4° C., then embedded in OCT (Tissue-Tek), and cut at 10 μm. For paraffin sections, tissue was processed through a graded ethanol series, followed by xylene, and then embedded in paraffin and cut at 7 μm. Tissue culture cells were fixed for 15 minutes at room temperature and stained directly. For staining, frozen slides were thawed to room temperature and rehydrated in PBS, while paraffin slides were deparaffinized and subjected to antigen retrieval. Slides were blocked in 5% normal donkey serum (Jackson Immuno Research) in PBS plus 0.5% Triton-X for 30 minutes at room temperature. Primary antibodies (listed in Methods Table 1) were diluted in blocking buffer and incubated overnight at 4° C. Slides were washed in PBS and incubated with secondary antibody for one hour at room temperature, and coverslips were mounted using Fluoromount-G (Southern Biotech). Confocal images were captured on a Nikon A1Rsi inverted confocal microscope.

[2] = tested on: hPSC-derived foregut spheroids; assay: Fundus specification protocol: Wnt signaling at days 6-9 of gastric organoid differentiation, qPCR; type: cell-based, human; conditions: Wnt3a at 100 ng/mL and 500 ng/mL
Procedure: Next, the function of Wnt signaling in the regulation of fundus-antrum patterning at days 6-9 of the gastric organoid differentiation protocol was tested. Addition of Wnt3a (at 100 ng/mL and 500 ng/mL) had no effect on spheroid gene expression, but it […] expression of the Wnt target gene Axin2. Thus, the effects of the small molecule CHIR99021 (CHIR; 2 uM) were tested. CHIR99021 stimulates Wnt signaling in a receptor-independent fashion.
Analysis was performed using the ΔΔCT method.

[3] = DE cultures after three days, even in the presence of WNT/FGF

B1: Noggin: BMP antagonist / BMP inhibitor (R&D Systems) (protein, UniProt Q13253 28-232, looked up)
Noggin: QHYLHIRPAPSDNLPLVDLIEHPDPIFDPKEKDLNETLLRSLLGGHYDPGFMATSPPEDRPGGGGGAAGGAEDLAELDQLLRQRPSGAMPSEIKGLEFSEGLAQGKKQRLSKKLRRKLQMWLWSQTFCPVLYAWNDLGSRFWPRYVKVGSCFSKRSCSVPEGMVCKPSKSVHLTVLRWRCQRRGGQRCGWIPIQYPIISECKCSC
- CDX2 expression [1, 3]: repressed
- foregut marker SOX2 expression [1, 3]: induced
- BMP target genes MSX1/2, qPCR ([1]; response to noggin): suppressed

B2: Wnt3a: recombinant WNT3A, Wnt ligand (R&D Systems) (protein, UniProt P56704 19-352, looked up)
Protein Wnt-3a: SYPIWWSLAVGPQYSSLGSQPILCASIPGLVPKQLRFCRNYVEIMPSVAEGIKIGIQECQHQFRGRRWNCTTVHDSLAIFGPVLDKATRESAFVHAIASAGVAFAVTRSCAEGTAAICGCSSRHQGSPGKGWKWGGCSEDIEFGGMVSREFADARENRPDARSAMNRHNNEAGRQAIASHMHLKCKCHGLSGSCEVKTCWWSQPDFRAIGDFLKDKYDSASEMVVEKHRESRGWVETLRPRYTYFKVPTERDLVYYEASPNFCEPNPETGSFGTRDRTCNVSSHGIDGCDLLCCGRGHNARAERRREKCRCVFHWCCYVSCQECTRVYDVHTCK
- effect on spheroid gene expression [2]: no effect
- expression of the Wnt target gene Axin2 [2]: did induce
